Results taken from patent US20110294873A1, “Gene Transfer Vectors Comprising At Least One Isolated DNA Molecule Having Insulator Or Boundary Properties And Methods To Identify The Same” (UNIVERSITÉ DE LAUSANNE, priority 2008, published 2011).

Assays:
[1] = system: HeLa cells; experiment: Neomycin (G418) resistant colony insulator assay in HeLa cells; assay type: cell-based, human; conditions: element between enhancer and minimal promoter/neo, 2 weeks G418
Description: For experimental convenience, Applicants wanted to validate the cHS4 enhancer-blocking activity in HeLa cells (top bars). Using the same approach, the pJC5-4 deriving constructs were stably transfected in HeLa cells. The cHS4 was able to insulate the reporter gene from the LCR activation of nearly 15-fold.
The capacity of the cHS4 to block the Fr-MLV LTR strong enhancer was assessed using the same system in HeLa cells. Additional plasmids were constructed, replacing the β-globin LCR element by the Fr-MLV LTR in both orientations.
FIG. 20. Assessment of the insulator activity of multimerized CTF binding sites using the commonly-used neomycin-resistance insulator assay. The number of neomycin resistant colonies were determined as in FIGS. 15 and 16 after 2 weeks of G418 selection of HeLa cells transfected using the indicated reporter constructs. […]
(A) Schematic representation of the vectors used for the insulator assay based on the quantitation of neomycin-resistant colonies. […] The level of expression of that reporter gene is assessed by the number of neomycin-resistant colonies obtained after stable transfections. […]
(C) Percentage of neomycin-resistant colonies counted 2 to 3 weeks after transfection and G418 selection of HeLa (dashed bars) and K562 (black bars) cells. […]

[2] = system: Fr-MLV LTR enhancer acting on GFP gene in HeLa cells; experiment: First generation two-reporter (DsRed/GFP) enhancer-blocking assay, transient transfection, FACS; assay type: cell-based, human; conditions: element interposed between enhancer and GFP gene
Description: The strategy elaborated by Applicants to address the potential enhancer-blocking activity of genetic elements consists in setting up a two-reporter genes-assay whereby the potency of suspected insulators can be quantified. A series of plasmids were thus designed, containing a combination of two reporter genes: a DsRed gene, used as the assay system internal control, under the control of a Fr-MLV LTR enhancer/promoter, and a GFP gene under the control of a minimal CMV promoter, but also subjected to the influence of the LTR enhancer. […] By analyzing the expression of both reporter genes by flow cytometry, this system provides a standardized quantitative procedure to assess potential insulator elements. […]
The constructs described in FIG. 14 were used to transfect transiently HeLa cells. The expression of both DsRed and GFP was analyzed by FACS. […]
HeLa cells were transfected with pAG1-3-HS4 (left panel) or pAG1-3-2HS4 (right panel) constructs (respectively constructs #4 and #5 on FIG. 30), and 100′000 cells were analyzed 48 hours later. […]
HeLa cell populations transiently transfected with constructs containing either no cHS4 (noins) or a copy at the GFP extremity (HS4) or two copies flanking the GFP gene (2HS4) were analyzed by FACS. Percentages of GFP-expressing cells (left panel) and GFP mean fluorescence in RLU (right panel) are plotted for each case.

B1: Ins2: 7 direct repeats of the CTF/NF1 binding site from adenovirus type II origin of replication, 5 bp spacing (nucleic acid)
DNA: ATCGATAAGCTTGCATTGGCAACGTGCCATAAGCATTGGCAACGTGCCATAAGCATTGGCAACGTGCCATAAGCATTGGCAACGTGCCATAAGCATTGGCAACGTGCCATAAGCATTGGCAACGTGCCATAAGCATTGGCAACGTGCCATAAGCGGGGGGATCC
modifications: 7xCTF/NF1 from adenovirus type II
occurrence of colonies of neomycin-resistant cells [1]: significantly reduced the occurrence of colonies of neomycin-resistant cells | decrease of mean fluorescence of GFP-positive cells [2]: approximately three-fold
